In patent US20200157187A1 (LOYOLA UNIVERSITY CHICAGO, published 2020):

How the values were obtained:
[1] = molecular target: T1, active TGF-β1, recombinant (Ala279-Ser390) (UniProt P01137 279-390); experiment: SPR, kinetic analysis on active TGF-β
T1 construct: range 279-390; The background describes the growth factor domain as a dimer; also called purified active TGF-β1

[2] = molecular target: T1, active TGF-β1, recombinant …; experiment: SPR, chip coated with active TGF-β, positive control antibody
TGF-β3 = molecular target: T2, TGF-β3 (UniProt P10600 301-412); experiment: ELISA on coated TGF-β isoforms
T2 sequence (looked up): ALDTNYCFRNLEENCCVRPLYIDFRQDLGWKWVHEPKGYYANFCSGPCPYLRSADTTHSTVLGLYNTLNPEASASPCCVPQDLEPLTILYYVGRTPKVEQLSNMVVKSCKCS

TGF-β2 = molecular target: T3, TGF-β2 (UniProt P61812 303-414); experiment: ELISA on coated TGF-β isoforms
T3 sequence (looked up): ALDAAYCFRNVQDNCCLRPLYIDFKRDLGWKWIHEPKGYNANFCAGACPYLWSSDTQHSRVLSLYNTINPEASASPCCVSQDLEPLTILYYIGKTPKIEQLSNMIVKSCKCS

[3] = molecular target: T4, active TGF-β on the surface of human CD4+CD25+ Tregs (human, UniProt P01137 279-390, The active form is a disulfide-linked homodimer of the growth factor domain; one chain is given.); experiment: confocal microscopy of human Tregs, detected with anti-rabbit Fab-AF488
T4 construct: also called surface TGF-β; surface active TGF-β
Method: FIGS. 5A and 5B represent functional characterization of 6Fc. FIG. 5A represents an effect of 6Fc on phosphorylation of SMAD2/3. […] As a control, WTFc was used (shown on the right panel). Phosphorylation of SMAD2,3 was assessed by flow cytometry (solid line). Dotted lines show isotype control staining. FIG. 5B represents confocal images of Tregs stained with the monobody-Ig fusion proteins. Purified human PBMC-derived Tregs were mixed with 6Fc or WTFc (40 μg/ml), followed by anti-rabbit Fab-AF488 (green) and Hoechst-33342 (blue) staining. Single-cell images were obtained using an LSM-510 confocal microscope (×40).

T1 sequence (P01137 279-390 limits assumed, form in doubt): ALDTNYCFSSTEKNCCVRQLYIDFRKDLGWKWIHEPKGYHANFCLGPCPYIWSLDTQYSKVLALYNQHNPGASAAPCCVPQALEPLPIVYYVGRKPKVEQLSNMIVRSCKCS
T4 sequence (P01137 279-390 limits assumed): as the sequence (P01137 279-390 limits assumed, form in doubt) above

Binder | koff [1] [s⁻¹] | kon [1] [M⁻¹ s⁻¹] | Kd [2] [nM] | binding result (TGF-β3) | binding result (TGF-β2) | binding result [3]
anti-TGF-β monoclonal antibody 1D11 (antibody, V domains shown) VH: QVQLQQSGPELVRPGASVKLSCKASGYIFITYWMNWVKQRPGQGLEWIGQIFPASGSTNYNEMFEGKATLTVDTSSSTAYMQLSSLTSEDSAVYYCARGDGNYALDAMDYWGQGTSVTVSS VL: DIVLTQSPASLAVSLGQRATISCRASESVDSYGNSFMHWYQQKSGQPPKLLIYLASNLESGVPARFSGSGSRTDFTLTIDPVEADDAATYYCQQNNEDPLTFGAGTKLEIK | 0.00028 | 14000 | 1.9 | – | – | –
WTFc (wild-type FN3 fused to rabbit IgG constant region CH2/CH3, His6 tag) (Fc fusion, Control fusion protein; also called wild-type FN3 fusion protein; not shown: rabbit IgG constant region, CH2/CH3 (Cγ2-Cγ3) domains) chain (part 1 of 2): AVSDVPRKLEVVAATPTSLLISWDAPIKRRLYYRITYGETGGNSPVQEFTVPGSKSTATISGLKPGVDYTITVYAVTYPAPYSKPISINYR chain (part 2 of 2): HHHHHH | – | – | – | no binding | no binding | no binding (tested: 40 µg/ml)
